B1: E01 (recombinant, His-tagged) (designed binder)
chain: MKIEEHHHHHHHHHHGGSTYKLILNGKTLKGETTTEAVDVYDAFDVFFVYAASNFSDFDDWTYDDATKTFTVTEGGSDK
B2: E01-D39F/D27E (designed binder)
chain: MKIEEHHHHHHHHHHGGSTYKLILNGKTLKGETTTEAVDVYDAFEVFFVYAASNFSFFDDWTYDDATKTFTVTEGGSDK
B3: E01-D39F/V31A (designed binder)
chain: MKIEEHHHHHHHHHHGGSTYKLILNGKTLKGETTTEAVDVYDAFDVFFAYAASNFSFFDDWTYDDATKTFTVTEGGSDK
B4: E01-D39F/A34S (designed binder)
chain: MKIEEHHHHHHHHHHGGSTYKLILNGKTLKGETTTEAVDVYDAFDVFFVYASSNFSFFDDWTYDDATKTFTVTEGGSDK
B5: E01-D39F/S35E (designed binder)
chain: MKIEEHHHHHHHHHHGGSTYKLILNGKTLKGETTTEAVDVYDAFDVFFVYAAENFSFFDDWTYDDATKTFTVTEGGSDK
B6: E01-D39F/F40I (designed binder)
chain: MKIEEHHHHHHHHHHGGSTYKLILNGKTLKGETTTEAVDVYDAFDVFFVYAASNFSFIDDWTYDDATKTFTVTEGGSDK
B7: E01-D39F/S35R (designed binder)
chain: MKIEEHHHHHHHHHHGGSTYKLILNGKTLKGETTTEAVDVYDAFDVFFVYAARNFSFFDDWTYDDATKTFTVTEGGSDK
B8: E01-D39F/S38G (designed binder)
chain: MKIEEHHHHHHHHHHGGSTYKLILNGKTLKGETTTEAVDVYDAFDVFFVYAASNFGFFDDWTYDDATKTFTVTEGGSDK
B9: E01-D39F/S35G (designed binder)
chain: MKIEEHHHHHHHHHHGGSTYKLILNGKTLKGETTTEAVDVYDAFDVFFVYAAGNFSFFDDWTYDDATKTFTVTEGGSDK
B10: E01-D39F (designed binder)
chain: MKIEEHHHHHHHHHHGGSTYKLILNGKTLKGETTTEAVDVYDAFDVFFVYAASNFSFFDDWTYDDATKTFTVTEGGSDK
B11: E01-D39F/V22L (designed binder)
chain: MKIEEHHHHHHHHHHGGSTYKLILNGKTLKGETTTEAVDLYDAFDVFFVYAASNFSFFDDWTYDDATKTFTVTEGGSDK

One assay deals with D-VEGF, synthetic D-protein form of VEGF-A(8-109) (Homo sapiens (Human)) (UniProt P15692). Put plainly: SPR (ProteOn XPR36), D-VEGF immobilized.
Sequence of D-VEGF, synthetic D-protein form of VEGF-A(8-109) (Homo sapiens (Human)) (P15692 214-315 limits assumed, form in doubt): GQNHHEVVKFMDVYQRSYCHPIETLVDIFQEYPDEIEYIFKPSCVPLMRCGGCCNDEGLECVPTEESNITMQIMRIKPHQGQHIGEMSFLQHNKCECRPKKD
Turning to B1, the Kd is 13.4 nM, the koff is 0.00347 s⁻¹ and the kon came out at 260000 M⁻¹ s⁻¹.

A further assay shares this target. Put plainly: SPR (ProteOn XPR36), D-VEGF immobilized. The source holds these as a separate data set.
B1 came in with a Kd of 3.46 nM, a koff of 0.00117 s⁻¹ and a kon of 338000 M⁻¹ s⁻¹.

As for B2, the Kd came out at 3.1 nM, the koff worked out at 0.00158 s⁻¹ and the kon was 511000 M⁻¹ s⁻¹.

B3: the Kd is 2.99 nM, the koff was found to be 0.00167 s⁻¹ and the kon amounted to 558000 M⁻¹ s⁻¹.

As for B4, the Kd amounted to 4.49 nM, the koff turned out to be 0.00174 s⁻¹ and the kon is 387000 M⁻¹ s⁻¹.

In turn, B5 displayed a Kd of 4.52 nM, a koff of 0.00205 s⁻¹ and a kon of 454000 M⁻¹ s⁻¹.

As to B6, the Kd came out at 2.29 nM, the koff was determined as 0.00138 s⁻¹ and the kon was 602000 M⁻¹ s⁻¹.

The molecule B7 registered a Kd of 5.35 nM, a koff of 0.00183 s⁻¹ and an on-rate constant (kon) of 341000 M⁻¹ s⁻¹.

For B8, the Kd is 2.83 nM, the koff stood at 0.00131 s⁻¹ and the kon worked out at 463000 M⁻¹ s⁻¹.

For B9, the Kd turned out to be 5.4 nM, the koff was found to be 0.00193 s⁻¹ and the kon was found to be 358000 M⁻¹ s⁻¹.

As for B10, the Kd stood at 3.48 nM, the koff was 0.00132 s⁻¹ and the kon is 380000 M⁻¹ s⁻¹.

The molecule B11 showed a Kd of 1.14 nM, a koff of 0.00082 s⁻¹ and a kon of 719000 M⁻¹ s⁻¹.

One may read the Kd as the equilibrium constant for the complex coming apart. Read a high Kd as weaker binding. By koff is commonly meant the rate constant with which the complex falls apart. As usually defined, the kon is the rate constant with which the complex forms. A high value points to faster complex formation.
